Test results reported in US7985404B1, “Reducing hair growth, hair follicle and hair shaft size and hair pigmentation” (Johnson & Johnson Consumer Companies, Inc., priority 1999, dated 2011).

Legend:
C57Bl/6 mice = assay: Depilation-induced hair cycle in C57Bl/6 mice, daily topical treatment; assay type: in vivo, mouse; settings: day eight of the hair cycle (FIG. 10), PBS-liposome vehicle
Description: (§1) C57BI/6 or C3H mice (male and female) were obtained from Charles River (Kingston, NY), at 8-10 weeks of age and were in the resting (telogen) phase of their respective hair cycle. Hair growth was induced by wax depilation (plucking) of each respective animal's back fur according to the procedure set forth in Stenn, et al., “Glucocorticoid Effect on Hair Growth Initiation: A Reconsideration,” 6 Skin Pharmacol., 125-134 (1993). In C57Bl/6 and C3H mice, 8-10 weeks old, the growth phase (anagen) starts synchronously in all hair follicles at the time of depilation.
Since the murine hair cycle varies not only between strains, but also amongst individual animals, the status of the hair cycle was analyzed in each animal on study. A 2 cm by 1 cm skin sample was isolated from each mouse with scissors, fixed with a 10% buffered formalin solution having a pH of about 6.9-7.1 at 25° C. (Stephens Scientific), and then formed into a paraffin block according to well-known procedures. The block was then microtomed, and sections were stained with H&E or Fontana-Mason stain. Sections were examined histologically in order to verify the phase of the hair cycle, the size of the hair follicle and hair shaft and the level of hair pigmentation, using procedures well known in the art. Hair length was assessed visually, and by using a low magnification (×8) dissecting microscope. […]

C3H mice = assay: Depilation-induced hair cycle in C3H mice, daily topical treatment; assay type: in vivo, mouse; settings: for hair follicle histology: 1%, day seven of the hair cycle; for hair follicle histology / effect on hair growth and pigmentation: PBS-liposome vehicle; for effect on hair growth and pigmentation: high concentrations; for hair growth, follicle and shaft size, visual observation throughout the hair cycle: in PBS-liposome vehicle (FIG. 9)
Description: as §1
Since the murine hair cycle varies not only between strains, but also amongst individual animals, the status of the hair cycle was analyzed in each animal on study. A 2 cm by 1 cm skin sample was isolated from each mouse with scissors, fixed with a 10% buffered formalin solution having a pH of about 6.9-7.1 at 25° C. (Stephens Scientific), and then formed into a paraffin block according to well-known procedures. The block was then microtomed, and sections were stained with H&E or Fontana-Mason stain. Sections were examined histologically in order to verify the phase of the hair cycle, the size of the hair follicle and hair shaft and the level of hair pigmentation, using procedures well known in the art. Hair length was assessed visually, and by using a low magnification (×8) dissecting microscope.
In order to verify that the effect of soymilk on hair growth is not specific to C57Bl/6 mice, we repeated the experiment described in Example 4 using the brown haired (Agouti) C3H mice. The results of these experiments were similar both visually and histologically.

trypsin = assay: Enzchek protease digestion fluorescent assay with trypsin; assay type: biochemical; settings: 100 units of trypsin; increasing concentrations / serial dilutions
Experimental: In order to support the hypothesis that STI and BBI in soymilk are involved in the hair growth effects described above, we tested soymilk for its serine protease inhibitory activity. An enzymatic assay was performed using “Enzchek”, a protease digestion fluorescent test system made by Molecular Probes of Eugene, Oreg. Using 100 units of trypsin (from Sigma chemicals, St. Louis Mo.) the test system produced fluorescence reading of about 1100 units. This reaction was inhibited with increasing concentrations of STI, as expected from a known trypsin inhibitor.

B1: BBI: soybean-derived serine protease inhibitor protein from Sigma-Aldrich, used in PBS-liposome vehicle (protein, UniProt P01055 40-110, looked up)
Bowman-Birk type proteinase …: DDESSKPCCDQCACTKSNPPQCRCSDMRLNSCHSACKSCICALSYPAQCFCVDITDFCYEPCKPSEDDKEN
C57Bl/6 mice
  hair follicle histology: smaller and less pigmented follicles
C3H mice
  hair follicle histology: reduce hair follicle and hair shaft size and hair shaft pigmentation
  effect on hair growth and pigmentation: substantial
  hair growth, follicle and shaft size, visual observation throughout the hair cycle: could delay hair growth and reduce hair follicle and hair shaft size

B2: STI: soybean-derived serine protease inhibitor protein from Sigma-Aldrich, used in PBS-liposome vehicle (protein, UniProt P01070 25-205, looked up)
Trypsin inhibitor A: DFVLDNEGNPLENGGTYYILSDITAFGGIRAAPTGNERCPLTVVQSRNELDKGIGTIISSPYRIRFIAEGHPLSLKFDSFAVIMLCVGIPTEWSVVEDLPEGPAVKIGENKDAMDGWFRLERVSDDEFNNYKLVFCPQQAEDDKCGDIGISIDHDDGTRRLVVSKNKPLVVQFQKLDKESL
C57Bl/6 mice
  hair follicle histology: smaller and less pigmented follicles
C3H mice
  hair follicle histology: reduce hair follicle and hair shaft size and hair shaft pigmentation
  effect on hair growth and pigmentation: substantial
  hair growth, follicle and shaft size, visual observation throughout the hair cycle: could delay hair growth and reduce hair follicle and hair shaft size
trypsin
  inhibition of trypsin reaction: inhibited
